Assay results as given in the DeepSol protein solubility set.

Experiment: soluble on expression in E. coli; label from the status in PepcDB or PDB records

Soluble on expression in E. coli, not soluble:
MGSDKIHHHHHHMDAILECCAGLDVHQETVVACILFGSLESKPKKTIRTFSTTTSDLLALTDWLEEEKCSHVAMESTGVYWKPVWNILEAGSFQLSLANAQRIKNLPGRKTDVKDAEWIAQLLRSGLIQGSFVPPAEIRDLRDLTRYRKKLLQDATQEKNRIHKILQDANIKITTYISDIFGVSGRNIMESLMDGEVITVEKLNQMVKGKVKSKIPGLADALNHRLRSHHRDMIRYSWSHLKFLEQSLINVEQKISECMAPYQQEVELLTSIPGINQTSSAIMIAELGADMSVFPTDSQLSSWAGVSPGNNESAGKKKEGVFPQETKR
MGSDKIHHHHHHMDEKGLADCHTPTNGGNQKIKFVNEPNLYRIIFRSNKPEAKQFQDWVFNEVLPTIRKTGKYEAPKPVEKRNYLNNSDMNNIKRLIWTCADHFGHKGSFNQAIWACLRDVTGVPSPAKFEVEHLPVLAEEFKRILNIVQPFLDMQYECQTLLIKRVIRGRADHTVLQALLDNMRNAANQSDNQFKEALQKQLPAMFNQECLNLINRRPNHYDHYEYNERLI
MGSDKIHHHHHHMDEMKVIEIIKKTLKFSNENIVKGIDDDCAIIKIDENFYLVATTDMMVKKAHIPSILSPYEIGGRILTANVSDIASMGAKPLAFLVSISLSKEEANEKFIKELYSGLDDFSKLYDCPVVGGDTNRGDELILSGTAFGITDNPIYRRGKVGDDICVTNDLGRVYCALTLYYMLKENKISYKEFERLCQKYPKIIEKLRKPIARIKEGLLMNKLINGCCDISDGLGKEITYFKNFEIYSDRIFKLIPEDVIEFCDAFNLNPIKVALNSGEEFELLFTTSKFNKVKDSLKGYSKIYKIGKIIEDGQFIDGEEFYGGGYIHKW
MGSDKIHHHHHHMDFIEVYPNAIPDDLCDRLILAFEKHSGVVDGQTGNGVDLEKKISRDLTLDNFTDLQPLKNELLSYTLKGTADYFSQYAMALMGAVAVSVSDEQGQAVTLTPSNFERLGKPRAEALVKYLYRSGSINIQKYQKNKGGYPHWHSEQFPQLSHNEALHRVVLYMFYLNDVEEGGETEFYYQQRKISPKKGTMVIAPAGFTHSHRGNMPISNDKYIATSWVMFNRAEQLYAVYA
MGSDKIHHHHHHMDFIEVYPNAIPDELCDRLISTLEQHPGVVDGRTGNGVDIEKKLSRDLTLDSFADLIPLRNELLSHALKGTVEYFDKYSMALMGAVAVKVADNQGQPVTLNPDNYAELGHPRADALVKYLYRSGTINVQKYPKGKGGYPHWHSEQFPQAGHNEALHRVVLYMFYLNDVEEGGETEFFYQGRKLKPQKGTMVIAPAGFTHTHRGNVPVSGDKYIATSWVMFNRAEQLYVVG
MGSDKIHHHHHHMDFMTALDIGASALSAERTSMNITSMNLANAKTTRTIGGGPYRRKAVVMAATEVDDPFSKHMQSALDRELRGVRVQHIVRDNRPFRQVYEPGHPDADANGYVKYPDINVVEEMANLMTSQRGYQASVSTIEAVKSMYTKALEIGRS
MGSDKIHHHHHHMDFRLRQMEIFRSVMLTGSINGAAKLLFISQPAVSRIIAHTEQTLGLKLFNRAKGKLIPTPEGVALFRQVDEFYEHALQVNNFARDLAQGATGTLNLSSSPCLSYTVMPRAIAQFIARYPKIRVVYHTSQLNCMATEVLSNKVDVAVAVMPIQHPNVKVEVFTTGKMACVLPKDHPLGSQTVLSLADVSAYPLIVHHPSITFGKLVSTAFRDAGLEMRSRVNVFQTDVACSLVRAGAGIAIVDEYTACAGAWHDLMQRPLAEPITLTPCIVRSAFDNQATHADKFIEILRGVAHAR
MGSDKIHHHHHHMDHQYTTLERNRYFEVLGGLNVENRGDNKVAMLSELDMTSAQALRTSVDRQTGIKPSYTAIVAKAVSIALREHPYANRMAVERLFWKRILQLHDVHMTIAVERDRPGIEQAVFAGTIRDTDKLDVAAITKELQSLAQSTEETNERWRLLKRMVETLPPALARRLISIPRWLPDQWIKHRGGSVMISSPAKYGVDMMVANWPWPIGYSFGLVKDRVIAVEGAAQVRPTMVLTMSFDRRLMGGAPAARFFRTVCEHIEHAERDMALPVNIPS
MGSDKIHHHHHHMDIRQLTYFIAVAEAKNYSRAAKSLFVTQPTLSQSIKKLEAELNTILFLQNGRQLALTEAGEILYEKGQLLMTNVNQMVTEIQQLNQEKKEGIRVGLTSLFAIQFMKQISTFMATHSNVEVSLIQDGSRKLQELLAKGKIDIGLLSFPSTRNDITIEPLQTSTKGYKVSIVMPKSHPLATLPEIELNDLRDYKVASLNEHYMLGEMLPRKCRALGFDPHIVFKHNDWEVLIHSLQDLNAVTILPSEFESISQVQDLCWVPLKDKNNFYPIGIAYRNDTSFSPMIEEFLSLLKTN
MGSDKIHHHHHHMDKFLYVAMSGAKQNMSALAVRANNLANANTDGFKSDLTQARSMQAFGEGLPSRVFAMTEIATSDFKAGALKTTGRDLDIAVKGDGWIAVQAPDGSEAYTRSGGLKFDNTGLLLNSRNNPVMGNSGPIVLPLPIDKLQISPDGIISIRPQGATAEVIEEVARIKLVNPDNSQMMRGEDGLFRLTSGDVAAKDPSVQVESGAIEASNVNPVEEMVALISIQRQYEMQVKMMKTAEETDQASSSLMRIG
MGSDKIHHHHHHMDKLMKICPTREIELQQKAKQLYEEEENRKIAYNAGLVEAEGYCQYTRLKEIIEFAKKCGYKKIGIAFCIGLKREMQTVQKIFEHHGFEVFSVICKNGAMPKSTIGLEASQTISKCSDEVMCNPIGQALFLNEAKVDLNVILGLCVGHDTLAMKYMEAPITTLVVKDRVTGHNPVAAIYNAESYFEKKLFDKDEE
MGSDKIHHHHHHMDLSNLNEKDMALGCKYCIKGEKLVLYITGLCEESCYYCPLSEKRKKKDVIFANEKQINSIEEAVEEARLCGSKGVGITGGNPLLRIERTVEYLKALKEEFGSDFHAHLYTTPKFVSEKNLKLLKDAGLDEIRLHSSKLFNDFENFDKLDFLEKLKLCKNYIKDVGVEIPGIPNFEKEILDLAFEIDKIGVKFLNINELEYSETNYQSLIDRGFSEKDDTTSRISGSFETAKYIIDNFKGKLIIHFCPSSLKDSVQMKNRLINRARNVAKPYEEITEEGLLLKGTINFKDLKDVSEVLEVLKENDVEFELLNDRLLLNPEILEDLIDHLKENNFDFKFSAYISEYYPTSDKLEVERIPLVTKKPNLKLKKK
MGSDKIHHHHHHMDQARTTTVDHPDRETPFLLFAQHGWDDRSYPIQQMAQSIAPQYSQVYAPNLGRFRTWIAIEPLIQSVEAVVLEAIAQYPDRPLRFLGHSMGGLIWLEVLSRHREWWDRTHSLVLVGSPVSGSDVCRLLDPFGRLPSIAKDLGRNRRPLAEAIAAQIPTASIVSDLGDYSDGLVPVNSSEFERATLVTLKDISHARLKSHPQVADAIAQFWKQPSIAPRPRDRAGTLIAQLRSLNLTECNHRNFAKAAVLKSQPDGVKIWRWLNPLRVQHIFVSSPDPATGRDCCRYAAYTGWLDDAALSKFLEKL
MGSDKIHHHHHHMDQSWVNQAIAKIEADYQRSADTHLIKLELPMLPCIDIYLKDESTHPTGSLKHRLARSLFLYALCNGWITQDTPIIESSSGSTAVSEAYFARLLGLPFIAVMPASTAKKKIQQIEFYGGRCHFVEHSSQIYAESQRLAEELSGHYMDQFTYAERATDWRGNNNIANSIFEQMQREPHPVPSWIVMSPGTGGTSATIGRYIRYQCAKTKLCVVDPENSVFYDYYHSGDASISCAGASRIEGIGRPRAEPSFIPGVVDHMVKIDDSASIATIYWLETLIGRKAGPSTGTNLYGALQLASEMHANGQTGSIVTLLCDSGDRYLDTYYDKQWVDEHIGDITEYQAKLAAFNESGHLE
MGSDKIHHHHHHMDSLGEQPSNRAPVITISSGRYLAQIATYGGGIKSLTYDGRPLVETYPDDAFPPLNAGVVLAPWPNRTDAGAYDFQGQSYQLPITEPDRNNAIHGFVANAVWNIDLIRPARVILSTTIEPQQGWPWAIELAADYLLTDSGLRAQFTATTPHEAVPFGFGWHTYLSAQGAEVDKTTLRVGVDKQWMLDDRNLPTGELVQPTNDVSGGLPMAGKLLDDCFLAERTPVTTVLESQGVGVSMHCSEQFPWFQIFTPDPAWEMPYPGRGRSVAVEPMTTSPNGLNLGIDTIGAASPWHGTITISAYNKHS
MGSDKIHHHHHHMDSNYTKAGYLTEPFKIFHLRDEHKLNIDFHYHDFHKILIHLHGNVSYCIEGRSYELKEHDIVLVNAGEVHKPILNDDSIYERIIIYVSQQLIDDYVSKGYDLACCFKQAYANQSHVLRLAATKGSRLADTIKGLDSTLRETNEYANELYQKLLFLEFLIQLNRITLHGGIEYINTFSSNKKIVEILDFLNKNLTNRISIDELADKFYMSRYHLMHTFKEETGCTIGSYITTKRLLLARDMIRDGSSVSAACDACGFGSYSSFIRAYRKQFHSTPTNT
MGSDKIHHHHHHMDTVNYTHHLSTFVDVVRAGSFSAVARRQGMKPSSIARKIDMLEDYFGAALFVRSTRALMLTDVGEVLVARAEVILNELNAMRVEIKSIKDNLDGPLRISCLPTFGKLHILPWLPKLRENFPRMTVELDLTERIANPSIERLDAVLRIGPLNDSGLYAKTIGVQRWLVCASPAYVGRSGKPAGWSQLAGHAIVDKLHDPAGICWHGALDPQQYSAMSIGFRCNDFDGLRQAALGGLGLAYLPDWVALPDITAGRLVKLFDDSKRGDEPISLLRASSKPSARLQIFHDALLDHLRKFSETGYGVE
MGSDKIHHHHHHMDVLKEVLSLDQDKFDQLKETSRDKTNETDDPFENYLKDCKFKAPSNKDQSPFAKLKSLQETHSNNEAAINIIIPQLIDYLTEFTNRLSNYTQDLDFIKKKSNELQSLLEYNSTKLAHISPMVNDLMIPPELIDDIIKGKINESWQDNITFIADKEEIYNKYRSNNLDQDNKDAENSAMLAPKDFDKLCQLLDILKNVILERSKRLIISKIKTLRSHNPVPSQRIQNKLLKVQKIFPFIRDNNLSLALELRQAYCYTMKWYYREYFSRYIRSLTILQFQQIDSQFALGNGLSTTSVSGFNNSPSLFFSNYLTTSASNAFYNKLPVTDEKIDKYFQIKKRLNILTQEDNTVMVSQIAENNTTKNYIEIGFKNLNLAILDNCTVEYHFLKDFFAMNGDNFEEINGLLEQIFQPTFDEATTYTQQLIQYNYDIFGVLISIRVANQLQFESERRGIPSMFDSFLNGQLIQLWPRFQQLVDFQCESLRKAAITTNVAKYAGNSSTSNSSPLTSPHELTVQFGKFLSSFLTLAITHKQSIDERSEPLYNSIIRLRNDFETVMTKCSKKTKSPERFLATNYMYLYNNLQQLHLHLNINDSDAQNYNFDSAENVGTKVANDDDNDSSVPLIIRETENHFKTLVEAFTRN
MGSDKIHHHHHHMDYKELLEVLRKDLNFKKVDLYQEKSNKTRYREIELGEKSPTIEELISFTDTLGIRLSEFLYRGDITPLAASYYGKRKIEVASLINNFPELEKQFPEIYKDRFKNLQCYTLFTLCLIISKSLNNSLYTFKNKDIRELKNFYKNREVILGADYAILSHLYMAVPEYSNELDFLTEKLFPINQSYGDIHDHAVQLCIKNAVTVFLEKKDFEKADYFLEQFDIVRKVPSFILDGTINLEMIYLKHLRNFLKKRNMEEYLKAVNIVNLFSQLGENDTYKELVKEVTEIARKENFEVPSSLNIIADTFEGVGYLKSDK
MGSDKIHHHHHHMEDFWRIRATDTAWKGVLHLASPRRYSRGEVIIRAGEMVDSLFYLESGEVRMIRTSMEGSEKILMYIEEGTLFGETPFFTGQPILSTFVCSRPAVIWRFSRHSVYADLLPNHPEIVSSLLHTFAAKVSTLSNQSASLGLQNVAERLCTFLYVTSGESISGAHGAELKLSMKMRDIANLLGVHRTTLYKAIRDLEKEGVLENFTRDSVRIADVTRFLEMVHK
